In patent US20260001926A1:

Target: fibroblast growth factor receptor (FGFR)
Test: cell-based or functional assay

Bovine wild-type FGF2 (SEQ ID NO: 1) (from UniProt P03969 11-155) (ligand)
EC50 (luciferase reporter in HEK293T cells transfected with plasmid FJ773212 / pGL4.33): 0.2 ng/ml
